{"source": "patent US20100048468A1", "about": "(Amgen, published 2010)", "binders": {"B1": {"name": "cgGLP-28 (SEQ ID NO: 22 + 30k PEG) (peptide)", "peptide": "HGEGTFTSDVSSYLE[Aib′]QAAKEFIAWLVKGRGC(mPEG‑maleimide)SG-NH2", "modifications": "also: PEG on Cys32: 30k, but the text says branched 40 kDa"}, "B2": {"name": "cgGLP-9 (SEQ ID NO: 6 + 20k PEG dimer) (peptide)", "peptide": "HGEGTFTSDVSSYLEGCAAKEFIAWLVKGRG", "modifications": "not checked"}, "B3": {"name": "HGEGTFTSDVSSYLEGCAAKEFIAWLVKGRG (SEQ ID NO: 6) (peptide)", "peptide": "HGEGTFTSDVSSYLEGCAAKEFIAWLVKGRG", "notes": "Unconjugated peptide"}, "B4": {"name": "[Gly8]cyclo[21-26] GLP1(7-37)-amide (SEQ ID NO: 42) (peptide)", "peptide": "HGEGTFTSDVSSYLEGQAAKEFIAWLVKGRG", "modifications": "side-chain cyclic lactam between positions 21 (Glu) and 26 (Lys) (GLP-1 numbering; residues 15 and 20 of the entry); C-terminal amide"}, "B5": {"name": "[Gly8]GLP1(7-37) cyc[Glu15-Lys19] (SEQ ID NO: 36) (peptide)", "peptide": "HGEGTFTSDVSSYLEGQAKKEFIAWLVKGRG", "modifications": "side-chain cyclic lactam between Glu15 and Lys19 (counted on the peptide; GLP-1 positions 21 and 25); C-terminal amide"}, "B6": {"name": "cgGLP-3 (SEQ ID NO: 6 + 8k PEG dumbbell) (peptide)", "peptide": "HGEGTFTSDVSSYLEGCAAKEFIAWLVKGRG", "modifications": "not fully specified (residue 17); also: dimer: two peptides on one mal-PEG-mal, one at each end"}, "B7": {"name": "[Gly8]GLP1(7-37) cyclo[Glu18-Lys22] (SEQ ID NO: 39) (peptide)", "peptide": "HGEGTFTSDVSSYLEGQEAKEKIAWLVKGRG", "modifications": "side-chain cyclic lactam between Glu18 and Lys22 (counted on the peptide; GLP-1 positions 24 and 28); C-terminal amide"}, "B8": {"name": "cgGLP-1 (SEQ ID NO: 6 + 20K PEG) (peptide)", "peptide": "HGEGTFTSDVSSYLEGC([maleimide-mPEG 20 kDa])AAKEFIAWLVKGRG"}, "B9": {"name": "cgGLP-7 (SEQ ID NO: 6 + 30k PEG) (peptide)", "peptide": "HGEGTFTSDVSSYLEGC(PEG 30 kDa)AAKEFIAWLVKGRG"}, "B10": {"name": "cgGLP-20 (SEQ ID NO: 25 + 20k mPEG) (peptide)", "peptide": "H[Aib′]EGTFTSDVSSYLE[Aib′]QAAKEFIAWLVKGRGC(mPEG 20 kDa)SG"}, "B11": {"name": "HGEGTFTSDVSSYLEGQAAKEFIAWLVKGRGCSG (SEQ ID NO: 10) (peptide)", "peptide": "HGEGTFTSDVSSYLEGQAAKEFIAWLVKGRGCSG"}, "B12": {"name": "cgGLP-6 (SEQ ID NO: 10 + 8k PEG dumbbell) (peptide)", "peptide": "HGEGTFTSDVSSYLEGQAAKEFIAWLVKGRGCSG", "modifications": "not fully specified (residue 32); also: dimer: two peptides on one mal-PEG-mal, one at each end"}, "B13": {"name": "cgGLP-4 & mgGLP-09A (SEQ ID NO: 10 + 20k PEG) (peptide)", "peptide": "HGEGTFTSDVSSYLEGQAAKEFIAWLVKGRGCSG", "modifications": "not fully specified (residue 32)", "notes": "also called cgGLP-09A"}}, "key": {"[1]": {"molecular_target": "T1, human GLP-1 receptor (human, UniProt P43220 24-463)", "test": "cell-based or functional assay"}, "[2]": {"molecular_target": "T2, mouse GLP-1 receptor (mouse, UniProt O35659 22-463)", "T2 sequence (looked up)": "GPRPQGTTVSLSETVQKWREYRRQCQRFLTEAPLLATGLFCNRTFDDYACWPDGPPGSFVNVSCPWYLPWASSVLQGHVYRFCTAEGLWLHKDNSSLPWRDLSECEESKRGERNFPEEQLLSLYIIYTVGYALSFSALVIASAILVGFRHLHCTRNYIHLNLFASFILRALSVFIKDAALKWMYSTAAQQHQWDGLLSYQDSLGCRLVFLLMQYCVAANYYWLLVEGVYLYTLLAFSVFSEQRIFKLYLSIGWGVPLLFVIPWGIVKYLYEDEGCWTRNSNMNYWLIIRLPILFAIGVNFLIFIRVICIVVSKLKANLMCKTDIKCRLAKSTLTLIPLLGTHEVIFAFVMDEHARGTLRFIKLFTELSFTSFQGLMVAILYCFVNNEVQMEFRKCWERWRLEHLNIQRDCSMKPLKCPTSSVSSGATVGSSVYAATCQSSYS", "test": "cell-based or functional assay"}, "[3]": {"molecular_target": "T1, human GLP-1 receptor", "test": "125I-GLP-1 displacement, membranes of CHOK1 cells expressing human GLP-1 receptor", "protocol": "(§1) Membrane Preparation. […] Cells were sedimented at 1500 rpm for 10 minutes. The resulting pellets were homogenized in 15 mls of ice cold sucrose buffer (25 mM Tris-HCl, 0.32 M Sucrose, 0.25 g/L, sodium azide, pH 7.4) with a motorized, glass fitted, Teflon homogenizer. The homogenate was centrifuged at 48,000×g at 4° C. for 10 minutes, resuspended in 25 ml assay buffer (50 mM Tris-HCl, 5 mM MgCl₂, 10 mg/ml protease-free BSA, 0.1 mg/ml STI, and 0.1 mg/ml Pefabloc, pH 7.4) with a Tissue-Tearor (Biospec Products), then centrifuged again at 48,000×g for 10 minutes. The pellets were homogenized for a third time in 15 ml assay buffer using the Tissue-Tearor and again centrifuged at 48,000×g for 10 minutes. The resulting pellet was resuspended in assay buffer at a wet weight concentration of 4 mg/ml.\nLigand Binding Assay. Binding assays were performed in 96-well U-bottom plates. […] The reaction was terminated by rapid filtration through Unfilter-96 GF/C glass fiber filter plates (FilterMate 196 Packard Harvester, PerkinElmer, Shelton, Conn.) pre-soaked in 0.5% polyethylenimine, followed by three washes with 300 μl of cold 50 mM Tris-HCl, pH 7.4. Bound radioactivity was determined using a TopCount microplate scintillation and luminescence counter (Packard Instrument Company, PerkinElmer, Shelton, Conn.). Nonlinear regression analyses of resulting concentration curves were performed using GraphPad Prism (GraphPad Software, Inc., San Diego, Calif.). […]"}, "[4]": {"molecular_target": "T1, human GLP-1 receptor", "test": "cell-based or functional assay", "remark": "listed apart in the source"}, "[5]": {"molecular_target": "T3, mouse GLP-1 receptor (mouse), O35659", "T3 chain": "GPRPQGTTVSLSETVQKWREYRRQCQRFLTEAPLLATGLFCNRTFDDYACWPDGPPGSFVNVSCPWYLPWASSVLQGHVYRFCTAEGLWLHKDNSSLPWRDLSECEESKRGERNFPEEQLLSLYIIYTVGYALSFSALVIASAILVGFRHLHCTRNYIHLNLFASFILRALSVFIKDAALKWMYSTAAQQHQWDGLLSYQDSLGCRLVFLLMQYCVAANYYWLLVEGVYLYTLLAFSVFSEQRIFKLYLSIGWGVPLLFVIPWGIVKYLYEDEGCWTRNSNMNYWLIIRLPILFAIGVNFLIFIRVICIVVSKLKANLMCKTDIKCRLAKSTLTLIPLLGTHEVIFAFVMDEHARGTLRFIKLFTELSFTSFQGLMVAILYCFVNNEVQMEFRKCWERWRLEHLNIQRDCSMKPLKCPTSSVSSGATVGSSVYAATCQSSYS", "test": "cell-based or functional assay"}, "[6]": {"molecular_target": "T1, human GLP-1 receptor", "test": "cell-based or functional assay", "remark": "listed apart in the source"}, "[7]": {"molecular_target": "T2, mouse GLP-1 receptor", "test": "cell-based or functional assay", "remark": "listed apart in the source"}, "[8]": {"molecular_target": "T1, human GLP-1 receptor", "test": "125I-GLP-1 displacement, membranes of CHOK1 cells expressing human GLP-1 receptor", "protocol": "as §1\n(§2) Ligand Binding Assay. Binding assays were performed in 96-well U-bottom plates. […] The reaction was terminated by rapid filtration through Unfilter-96 GF/C glass fiber filter plates (FilterMate 196 Packard Harvester, PerkinElmer, Shelton, Conn.) pre-soaked in 0.5% polyethylenimine, followed by three washes with 300 μl of cold 50 mM Tris-HCl, pH 7.4. Bound radioactivity was determined using a TopCount microplate scintillation and luminescence counter (Packard Instrument Company, PerkinElmer, Shelton, Conn.). Nonlinear regression analyses of resulting concentration curves were performed using GraphPad Prism (GraphPad Software, Inc., San Diego, Calif.).\nIn vitro experiments were conducted to determine receptor binding and potency for a class of molecules having a glycine substitution at position 8, a cysteine substitution at position 22 and a variable C-terminus.", "remark": "listed apart in the source"}, "[9]": {"molecular_target": "T1, human GLP-1 receptor", "test": "cell-based or functional assay", "remark": "listed apart in the source"}, "[10]": {"molecular_target": "T1, human GLP-1 receptor", "test": "cell-based or functional assay", "remark": "listed apart in the source"}, "[11]": {"molecular_target": "T2, mouse GLP-1 receptor", "test": "cell-based or functional assay", "remark": "listed apart in the source"}, "[12]": {"molecular_target": "T1, human GLP-1 receptor", "test": "125I-GLP-1 displacement, membranes of CHOK1 cells expressing human GLP-1 receptor", "protocol": "as §1, §2\nThe pegylated molecules were conjugated at the cysteine at position 38.", "remark": "listed apart in the source"}}, "note": "Read-outs that look alike come from different tables or passages of the source. Non-standard residues stand in square brackets, D forms with d. Groups on a side chain read outwards from the residue. Primed or numbered codes have the meaning given here. No end group written: not given here. maleimide = maleimide group of a PEG-maleimide, coupled to the cysteine thiol (thioether); mPEG‑maleimide = 30 kD linear mPEG-maleimide attached to the Cys; mPEG 20 kDa = 20 kD mPEG-maleimide, thioether-linked to the Cys; Aib′ = alpha aminobutyric acid (source's wording)"}
{"binder": "B1", "values": [{"measurement": "EC50 human", "setting": "[1]", "value": 0.1, "unit": "nM"}, {"measurement": "EC50 mouse", "setting": "[2]", "value": 0.8, "unit": "nM"}, {"measurement": "IC50", "setting": "[3]", "value": 71, "unit": "nM"}]}
{"binder": "B2", "values": [{"measurement": "EC50 human", "setting": "[4]", "value": 1, "unit": "nM"}, {"measurement": "EC50 mouse", "setting": "[5]", "value": 9, "unit": "nM"}]}
{"binder": "B3", "values": [{"measurement": "EC50 human", "setting": "[6]", "value": 0.24, "unit": "nM"}, {"measurement": "EC50 mouse", "setting": "[7]", "value": 1.4, "unit": "nM"}, {"measurement": "IC50", "setting": "[8]", "value": 70, "unit": "nM"}]}
{"binder": "B4", "values": [{"measurement": "EC50 human", "setting": "[9]", "value": 0.6, "unit": "nM"}]}
{"binder": "B5", "values": [{"measurement": "EC50 human", "setting": "[9]", "value": 0.15, "unit": "nM"}]}
{"binder": "B6", "values": [{"measurement": "EC50 human", "setting": "[6]", "value": 0.2, "unit": "nM"}, {"measurement": "EC50 mouse", "setting": "[7]", "value": 5.7, "unit": "nM"}, {"measurement": "IC50", "setting": "[8]", "value": 84, "unit": "nM"}]}
{"binder": "B7", "values": [{"measurement": "EC50 human", "setting": "[9]", "value": 0.8, "unit": "nM"}]}
{"binder": "B8", "values": [{"measurement": "EC50 human", "setting": "[4]", "value": 12, "unit": "nM"}, {"measurement": "EC50 mouse", "setting": "[7]", "value": 245, "unit": "nM"}]}
{"binder": "B9", "values": [{"measurement": "EC50 human", "setting": "[4]", "value": 0.2, "unit": "nM"}, {"measurement": "EC50 mouse", "setting": "[7]", "value": 2.9, "unit": "nM"}]}
{"binder": "B10", "values": [{"measurement": "EC50 human", "setting": "[1]", "value": 0.099, "unit": "nM"}, {"measurement": "EC50 mouse", "setting": "[2]", "value": 1.5, "unit": "nM"}, {"measurement": "IC50", "setting": "[3]", "value": 30, "unit": "nM"}]}
{"binder": "B11", "values": [{"measurement": "EC50 human", "setting": "[10]", "value": 0.05, "unit": "nM"}, {"measurement": "EC50 mouse", "setting": "[11]", "value": 0.32, "unit": "nM"}]}
{"binder": "B12", "values": [{"measurement": "EC50 human", "setting": "[10]", "value": "~0.1", "unit": "nM"}, {"measurement": "EC50 mouse", "setting": "[11]", "value": 0.8, "unit": "nM"}, {"measurement": "IC50", "setting": "[12]", "value": 11, "unit": "nM"}]}
{"binder": "B13", "values": [{"measurement": "EC50 human", "setting": "[10]", "value": 0.23, "unit": "nM"}, {"measurement": "EC50 mouse", "setting": "[11]", "value": 1.8, "unit": "nM"}, {"measurement": "IC50", "setting": "[12]", "value": 130, "unit": "nM"}]}
